Measured values: patent publication US20180002403A1 (CRESCENDO BIOLOGICS, published 2018)
Residue numbers refer to the chain shown, from its start.

Experiments:
[1] = target: IL-17RA Fc fusion protein (human, UniProt Q96F46 33-320, limits assumed); assay: BIAcore T200, single-cycle kinetics, IL-17RA Fc fusion captured on protein G chip, 1:1 model
Experimental: (§1) Recombinant IL-17A (Peprotech AF-200-17) was diluted to 1 μg/ml in acetate buffer, pH 5.5 (BIAcore, cat# BR-100-52) and coupled to a CM5 Series S chip (cat # BR-1006-68) using amine-coupling chemistry (NHS-EDC amine-coupling kit, cat # BR-1000-50) and the BIAcore immobilization Wizard software. In this way 100RU of IL-17A was immobilised plus a blank surface (no IL-17A) was also prepared for reference subtraction. For IL-17RA, first a protein G chip was prepared by diluting protein G to 20 μg/ml in acetate buffer, pH 4 (BIAcore, cat# BR-100-49) and then coupled 1200 RU a CM5 Series S chip using amine coupling chemistry. This surface was then used to capture IL-17RA Fc fusion protein from solution: IL-17RA at 10 μg/ml in HBS injected for 10 seconds at 30 μl/min flow rate would capture approximately 100-150RU of IL-17RA onto the protein G surface.
(§2) Binding kinetics of optimized clone 1.1 (anti-IL-17A) and clone 2.1 (anti-IL-17RA) VH were determined by single-cycle kinetics. […] VH binding kinetics were then determined from the (blank subtracted) sensorgram traces using 1:1 binding models and BIAevaluation software.

[2] = target: T1, Recombinant human IL-17A (Peprotech AF-200-17) (human, UniProt Q16552 24-155); assay: BIAcore T200, single-cycle kinetics, IL-17A amine-coupled to CM5 chip
T1 construct: Amine-coupled to a CM5 chip (100 RU) for BIAcore; also called recombinant IL-17A
T1 sequence (Q16552 24-155 limits assumed): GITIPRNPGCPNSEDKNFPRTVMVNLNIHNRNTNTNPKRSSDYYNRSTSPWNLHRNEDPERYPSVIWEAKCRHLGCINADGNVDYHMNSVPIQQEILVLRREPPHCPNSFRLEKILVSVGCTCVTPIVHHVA
Experimental: Binding kinetics of VH antibodies were measured on a BIAcore T200 instrument. Target (either recombinant IL-17A or IL-17RA) was diluted to 1 μg/ml in acetate buffer, pH 5.5 (BIAcore, cat# BR-100-52) and coupled to a CM5 Series S chip (cat # BR-1006-68) using amine-coupling chemistry (NHS-EDC amine-coupling kit, cat # BR-1000-50) and the BIAcore immobilization Wizard software. In this way 100RU of target was immobilised plus a blank surface (no target) was also prepared for reference subtraction.
Binding kinetics of VH antibodies were determined by single-cycle kinetics. VH antibodies were prepared in dilution series (typically 1:3 dilution series starting with 100 nM VH at the highest concentration), and then injected over the antigen-coated surfaces and also a blank surface, starting with the lowest concentration of VH and then working progressively up to the highest concentration. VH binding kinetics were then determined from the (blank subtracted) sensorgram traces using 1:1 binding models and BIAevaluation software.

[3] = target: T1, Recombinant human IL-17A (Peprotech …); assay: BIAcore T200, single-cycle kinetics, IL-17A amine-coupled to CM5 chip, 1:1 model
Experimental: as §1, §2

B1: clone 2.2 VH (VHH)
VHH: QVQLVQSGAEVKKPGASVKVSCKASGYPFTSYDINWVRQATGRSLEWMGWMNPTNGNTVYAQKFQDRVTMTRNTSISTAYMELSSLRSEDTAVYFCARGRRDDWKNNYWGQGTLVTVSS
notes: Optimized variant of clone 2.1 from the recombination library; human VH single domain; also called optimized VH 2.2
[1]
  fold improvement in affinity over parent clone 2.1: 5 fold

B2: clone 1.1 VH (VHH)
VHH: EVQLVESGGGLVQPGGSLRLSCAASGFTFSSYSMYWVRQAPGKGLEWVANIKQDGSEKYYVDSVKGRFTISRDNAKNSLFLQMNSLRAEDTAVYYCAKGEILPLHFDYWGQGTLVTVSS
notes: Human VH single domain (no light chain) from a Tg/TKO mouse, lead raised against IL-17A; It was cloned in phagemid pUCG3; also called VH 1.1; parent VH 1.1
[2]
  binding result: binds

B3: clone 1.6 VH (VHH)
VHH: B2 VHH with N50E, K58Q, F80Y, H105Y
notes: Optimized variant of clone 1.1 from the recombination library; human VH single domain; also called optimized VH clone 1.6
[3]
  fold improvement in affinity over parent clone 1.1: ≤ 10 fold

B4: clone 1.10 VH (VHH)
VHH: VQLVESGGGLVQPGGSLRLSCAASGFTFSSYRMYWVRQAPGKGLEWVASIEQDGSEEYYVDSVKGRFTISRDNAKKSLFLQMNSLRAEDTAVYYCAKGEILPLYFDYWGQGTLVTVSS
notes: Optimized variant of clone 1.1 from the recombination library; human VH single domain; also called optimized VH clone 1.10
[3]
  fold improvement in affinity over parent clone 1.1: ≤ 10 fold
